In article PMC4776207:

Target: ISAV s8ORF2 protein (protein encoded by the largest open reading frame of gene segment 8) (infectious salmon anaemia virus (ISAV), strain Glesvaer/2/90)
Experiment: non-reducing SDS-PAGE with western blot

Which stoichiometry N does the source give for “ISAV s8ORF2 protein (protein encoded by the largest open reading frame of gene segment 8) (natural protein)” here?
Its stoichiometry N is 2.
